In paper doi:10.1101/2020.11.04.368480:

Biological target: light chain of the anti-IL8 IgG1 mAb of the CHO DP-12 cell line
Experiment: SEC + native MS

stoichiometry N: 2
Substance: light chain of the anti-IL8 IgG1 mAb of the CHO DP-12 cell line (antibody)
